This is an account of results in paper PMC3032679 (Journal of Translational Medicine, 2011).

The target of assay [1] is T1, human recombinant Hsp90α (human, UniProt P07900 1-732).
T1 construct: Heat shock protein 90 alpha (Hsp90α), human, recombinant; also called heat shock protein 90; source: bought: Stressgen Bioreagents
The assay is described as follows: SPR; competition; Hsp90 or Hsp70 (1 μM) preincubated with TPR peptide (14, 140 or 700 μM) passed over Hop, FKBP5 or PP5 immobilised on CM5 chip; signal without peptide = 100% binding; 25°C, HBS-EP buffer pH 7.4. To be noted: both partners purified. Background: In SPR one partner is held on a chip, and binding of the other changes the refractive index at the surface.

For assay [2], the target named is T1, human recombinant Hsp90α. The assay is described as follows: SPR; Biacore 3000; biotin-TPR peptide immobilised on streptavidin (SA) chip; Hsp90 or Hsp70 (0.3, 1 or 2 μM) as analyte, 30 μl/min, 25°C, HBS-EP buffer pH 7.4. To be noted: both partners purified.

Ends that are not written are not given here.

As usually defined, the Kd is the concentration at which binding is half-saturated.

B1: human recombinant PP5 (natural protein, UniProt P53041 1-499, looked up)
chain: MAMAEGERTECAEPPRDEPPADGALKRAEELKTQANDYFKAKDYENAIKFYSQAIELNPSNAIYYGNRSLAYLRTECYGYALGDATRAIELDKKYIKGYYRRAASNMALGKFRAALRDYETVVKVKPHDKDAKMKYQECNKIVKQKAFERAIAGDEHKRSVVDSLDIESMTIEDEYSGPKLEDGKVTISFMKELMQWYKDQKKLHRKCAYQILVQVKEVLSKLSTLVETTLKETEKITVCGDTHGQFYDLLNIFELNGLPSETNPYIFNGDFVDRGSFSVEVILTLFGFKLLYPDHFHLLRGNHETDNMNQIYGFEGEVKAKYTAQMYELFSEVFEWLPLAQCINGKVLIMHGGLFSEDGVTLDDIRKIERNRQPPDSGPMCDLLWSDPQPQNGRSISKRGVSCQFGPDVTKAFLEENNLDYIIRSHEVKAEGYEVAHGGRCVTVFSAPNYCDQMGNKASYIHLQGSDLRPQFHQFTAVPHPNVKPMAYANTLLQLGMM
notes: PP5 (protein phosphatase 5), human, recombinant; Abnova recombinant proteins often carry a GST tag (surmise); source: bought: Abnova
Turning to B1, the binding result with human recombinant Hsp90α [1] is “binds”.

B2: Biotin-conjugated TPR peptide (peptide)
peptide: KAYARIGNSYFK
modifications: also: biotin-conjugated, position not given here
notes: Immobilised on a streptavidin sensor chip by its biotin; also called biotin-TPR; immobilized TPR peptide; source: synthetic peptide
Consider B2, for which the Kd in the assay with human recombinant Hsp90α [2] was 1420 nM.

B3: TPR peptide (KAYARIGNSYFK) (peptide)
peptide: KAYARIGNSYFK
notes: also called designed TPR peptide; source: synthetic peptide
Regarding B3, the binding result with human recombinant Hsp90α [1] was “binds”.
